Source: patent publication US20120065254A1

Biological target: C5a receptor (CD88) on differentiated U937 cells (UniProt P21730)
Test: cell-based or functional assay

C5a receptor (CD88) on differentiated U937 cells, sequence (P21730 whole entry): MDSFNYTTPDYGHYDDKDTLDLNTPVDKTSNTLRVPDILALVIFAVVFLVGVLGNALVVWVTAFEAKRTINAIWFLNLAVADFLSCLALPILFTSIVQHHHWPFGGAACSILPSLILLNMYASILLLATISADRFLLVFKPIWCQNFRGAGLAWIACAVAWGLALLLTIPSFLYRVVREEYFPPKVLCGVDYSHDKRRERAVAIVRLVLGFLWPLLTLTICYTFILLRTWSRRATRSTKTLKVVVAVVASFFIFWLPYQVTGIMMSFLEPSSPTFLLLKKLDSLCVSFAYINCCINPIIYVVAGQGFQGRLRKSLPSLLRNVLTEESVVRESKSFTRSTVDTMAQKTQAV

chemotactic response of U937 cells	chemotaxis of U937 cells, maximal effective concentration	Substance
0.8 nM	–	His6-tagged monkey C5a (His6-macC5a) (ligand)
–	1 nM	recombinant human C5a (from UniProt P01031 678-751) (ligand)
